Patent US7125658B2, “Small protein that interacts with a ribonucleotide reductase subunit and uses thereof” (The Trustees of Columbia University in the City of New York, priority 1998, dated 2006)

T1: Recombinant yeast Rnr1 protein (large subunit of ribonucleotide reductase) (yeast (Saccharomyces cerevisiae), UniProt P21524 1-888)
T1 construct: It is in monomer/dimer/tetramer equilibrium depending on dTTP; also called yeast R1 protein
T1 sequence (looked up): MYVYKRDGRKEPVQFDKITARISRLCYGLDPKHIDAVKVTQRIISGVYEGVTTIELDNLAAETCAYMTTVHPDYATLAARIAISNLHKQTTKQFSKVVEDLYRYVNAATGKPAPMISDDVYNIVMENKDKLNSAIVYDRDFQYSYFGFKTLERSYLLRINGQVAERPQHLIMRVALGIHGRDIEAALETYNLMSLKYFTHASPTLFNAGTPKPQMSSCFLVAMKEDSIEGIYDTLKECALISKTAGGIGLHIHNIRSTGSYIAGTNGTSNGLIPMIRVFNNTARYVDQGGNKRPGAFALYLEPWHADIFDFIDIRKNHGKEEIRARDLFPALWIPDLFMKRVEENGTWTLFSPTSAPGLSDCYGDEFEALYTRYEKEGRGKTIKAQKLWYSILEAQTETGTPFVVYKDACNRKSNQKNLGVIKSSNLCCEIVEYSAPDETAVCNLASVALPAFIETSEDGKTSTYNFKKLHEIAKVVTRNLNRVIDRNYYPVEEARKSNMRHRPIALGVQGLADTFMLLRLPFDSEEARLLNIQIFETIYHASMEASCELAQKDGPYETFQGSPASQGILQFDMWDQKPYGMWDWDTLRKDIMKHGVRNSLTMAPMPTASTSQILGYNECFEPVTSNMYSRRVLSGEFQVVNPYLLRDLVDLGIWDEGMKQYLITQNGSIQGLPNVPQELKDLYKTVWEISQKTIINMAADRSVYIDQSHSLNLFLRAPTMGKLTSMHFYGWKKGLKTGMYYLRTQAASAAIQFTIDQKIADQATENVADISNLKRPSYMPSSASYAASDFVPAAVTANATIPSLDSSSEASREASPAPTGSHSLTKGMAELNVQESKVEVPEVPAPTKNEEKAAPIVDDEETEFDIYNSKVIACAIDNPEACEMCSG

T2: yeast RNR (Saccharomyces cerevisiae, UniProt P21524)
T2 construct: made in house; host or cells: E. coli BL21 (DE3), pET3a
T2 sequence (P21524 1-888): T1 sequence (looked up)

B1: Recombinant yeast Sml1 protein (other)
chain: MQNSQDYFYAQNRCQQQQAPSTLRTVTMAEFRRVPLPPMAEVPMLSTQNSMGSSASASASSLEMWEKDLEERLNSIDHDMNNNKFGSGELKSMFNQGKVEEMDF
notes: Immobilized on the BIAcore chip in the biosensor experiments; also called YML058W product
B2: Sml1p: 104 amino acid yeast protein encoded by YML058w (SML1) that binds Rnr1 and inhibits ribonucleotide reductase; recombinant, expressed in E. coli (protein)
chain: B1 chain

Key:
[1] = molecular target: T1, Recombinant yeast Rnr1 protein (large …); experiment: BIAcore SPR, calculated from rate constants; calculated from the rate constants, not the equilibrium fit
Method: (§1) BIAcore biosensor analysis. The interaction between Sml1p and either yeast Rnr1p or mouse R1 protein was studied by biosensor analysis using the BIAcore method (Biacore AB). The Sml1 protein was prepared in 10 mM sodium acetate, pH 5.2, at a concentration of 0.44 mg/ml; it was then immobilized on the dextran layer of the sensor chip as described previously for the mouse R2 protein (17). The ligand proteins were equilibrated with running buffer (10 mM Hepes-KOH, pH 7.4, 200 mM potassium acetate, 1 mM EDTA, 5 mM magnesium acetate and 0.05% Surfactant P20 (BIAcore). The interactions were studied at a constant temperature of 22° C. and a constant flow of 5 μl/min. Kinetics for the interaction of Sml1p with yeast Rnr1p was determined by allowing the immobilized Sml1p to interact with increasing concentrations of Rnr1p (18). The resonance unit (RU) is proportional to the mass, and 1 RU corresponds to a surface concentration of 1 pg of protein/mm² of the 100 nm thick dextran layer (19).
(§2) In control experiments, where the same series of Rnr1p solutions passed a sensor chip without immobilized Sml1p, a "bulk effect" gave a response of only about 60 RU. […] Calculating the equilibrium dissociation constant from these rate constants gave a K_0 of about 0.25 µM, which is close to the directly determined K_0.

[2] = molecular target: T1, Recombinant yeast Rnr1 protein (large …); experiment: BIAcore SPR, Sml1p immobilized, Rnr1p injected (0.1-2.5 µM); equilibrium response fitted to one site binding model; equilibrium response fit (GraphPad Prism), directly determined
Method: In this figure, the bulk effect response of around 60 RU has been subtracted.
as §1, §2

yeast RNR = molecular target: T2, yeast RNR; experiment: in vitro yeast ribonucleotide reductase CDP reduction assay; assay type: biochemical
Method: FIG. 9 Inhibition of yeast RNR by Sml1p. A series of tubes containing yeast RNR ([…]) were incubated at 30° C. for 30 min in a final volume of 50 μl: 25 nmol of [^3H]CDP (specific activity 37000 cpm/nmol), 2 μmol of Tris-HCl, pH 7.6, 0.125 μmol of ATP, 0.32 μmol of MgCl^2, 0.5 μmol of dithiothreitol, 5 μmol of KCl and 1 nmol of FeCl3. In addition, the tubes contained increasing amounts of Sml1p. After incubation, the samples were processed as described earlier to obtain the amount of dCDP formed (22).
FIG. 10 Inhibition of yeast RNR by nonapeptides corresponding to the C terminal ends of Sml1p, Rnr2p or Rnr4p. […] 9 in the presence of increasing amounts of nonapeptide. Sml1 peptide, ã; Rnr2 peptide, o; Rnr4 peptide, x.
Inhibition of yeast ribonucleotide reductase by the Sml1 protein. Recombinant yeast ribonucleotide reductase was assayed for activity using a CDP reduction assay, with ATP as a positive effector in the presence of increasing amounts of Sml1 protein (FIG. 9). A molar ratio of 1:1 between Rnr1p monomer (MW 100000) and Sml1p (MW 11800) gave about 50% inhibition.
Inhibition of yeast ribonucleotide reductase by nonapeptides corresponding to the C-terminal ends of Sml1p, Rnr2p or Rnr4p. […] Since such peptides are known to inhibit RNR activity by binding to the R1 protein and preventing R1/R2 interaction, we wanted to study the influence of a C-terminal nonapeptide of Sml1p on yeast RNR activity.

Molecule | Kd [1] [µM] | Kd [2] [µM] | efficiency in inhibiting yeast RNR activity relative to its C terminal nonapeptide, on a molar basis (yeast RNR) | type of inhibition versus Rnr2p/Rnr4p heterodimer (yeast RNR; Rnr2p/Rnr4p 1 to 32 μg, Rnr1p 2 μg, Sml1p 0, 0.2 and 2 μg) | inhibition of yeast RNR (yeast RNR; molar ratio of 1:1 between Rnr1p monomer and Sml1p, CDP reduction, ATP as positive effector)
B1 | ~0.25 | 0.41 | – | – | –
B2 | – | – | about 200 times | noncompetitive inhibition | about 50%
